The values below come from PMC6644155.

The data set addresses T1, Thyroid hormone receptor beta (THRβ), recombinant (Homo sapiens, UniProt P10828 1-461).
T1 sequence: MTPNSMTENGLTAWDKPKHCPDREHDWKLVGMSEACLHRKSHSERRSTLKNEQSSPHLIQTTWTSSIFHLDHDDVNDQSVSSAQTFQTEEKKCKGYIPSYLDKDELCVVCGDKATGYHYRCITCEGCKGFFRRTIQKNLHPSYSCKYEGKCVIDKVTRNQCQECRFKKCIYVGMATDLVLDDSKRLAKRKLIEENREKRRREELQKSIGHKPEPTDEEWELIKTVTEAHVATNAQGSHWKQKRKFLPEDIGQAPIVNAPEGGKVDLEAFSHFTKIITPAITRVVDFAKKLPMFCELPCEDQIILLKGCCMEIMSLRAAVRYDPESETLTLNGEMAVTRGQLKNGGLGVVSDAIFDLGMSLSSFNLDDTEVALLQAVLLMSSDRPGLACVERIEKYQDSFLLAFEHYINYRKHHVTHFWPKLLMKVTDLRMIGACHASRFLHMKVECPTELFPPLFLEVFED
The data set can be described thus: EMSA. For orientation: Mobility shift assays separate free from complexed probe on a gel.

B1: rs717-G (dsDNA)
DNA 1: CCCGGTCAGGACCACGGTGACCATGAGGGCG
DNA 2: CGCCCTCATGGTCACCGTGGTCCTGACCGGG
As for B1, the binding result is recorded as “binds”.
